Results as given in patent US7745587 (DYAX, dated 2010).

Legend:
[1] = target: T1, human MMP-14 (human, UniProt P50281 112-541, limits assumed); experiment: cell-based or functional assay
[2] = target: mouse MMP-14 in arthritic knee joints of C57Bl6 mice (mouse, UniProt P53690 112-582); experiment: immunohistochemistry of mouse joints, acute SCW-induced arthritis
[3] = target: T1, human MMP-14; experiment: enzymatic inhibition assay against 2 pM hMMP-14; rate (dF/min) against [I] 0-100 nM
[4] = target: T1, human MMP-14; experiment: enzymatic assay, IgG, 2 nM MMP-14, peptide substrate at 10, 14, 18 µM; highest Ki measured
Method: (§1) K_i studies were performed using an enzymatic assay at substrate [Mca-Pro-Leu-Ala-Cys(Mob)-Trp-Ala-Arg-Dap(Dnp)-NH_2] concentrations of 10 μM, 14 μM and 18 μM. […] The concentration of MMP-14 was 2 nM.

[5] = target: T1, human MMP-14; experiment: enzymatic inhibition assay, 2 nM MMP-14, 10 uM substrate Mca-Pro-Leu-Ala-Cys(Mob)-Trp-Ala-Arg-Dap(Dnp)-NH2; rate against [IgG] 0-50 nM
Method: as §1

[6] = target: T1, human MMP-14; experiment: enzymatic inhibition assay, 2 nM MMP-14, 14 uM substrate Mca-Pro-Leu-Ala-Cys(Mob)-Trp-Ala-Arg-Dap(Dnp)-NH2; rate against [IgG] 0-50 nM
Method: as §1

[7] = target: T1, human MMP-14; experiment: enzymatic inhibition assay against 2 pM hMMP-14; rate (dF/min) against [I] 0-50 nM
[8] = target: T1, human MMP-14; experiment: enzymatic inhibition assay against 2 pM hMMP-14; rate (dF/min) against [I] 0-100 nM; value taken from the line under the panel marked Parental, not from its inset table
[9] = target: T1, human MMP-14; experiment: enzymatic inhibition assay, 2 nM MMP-14, 18 uM substrate Mca-Pro-Leu-Ala-Cys(Mob)-Trp-Ala-Arg-Dap(Dnp)-NH2; rate against [IgG] 0-50 nM
Method: as §1

Binder	IC50 of MMP-14 inhibition (MMP-14 at 2 pM), IgG [1] [nM]	binding result [2]	IC50 [3] [nM]	Ki [4] [nM]	Ki [5] [nM]	Ki [6] [nM]	IC50 [7] [nM]	IC50 [8] [nM]	Ki [9] [nM]
M0038-F01 IgG (antibody, V domains shown, IgG of the Fab) VH: EVQLLESGGGLVQPGGSLRLSCAASGFTFSLYSMNWVRQAPGKGLEWVSSIYSSGGSTLYADSVKGRFTISRDNSKNTLYLQMNSLRAEDTAVYYCARGRAFDIWGQGTMVTVSS VL: DIQMTQSPSSLSAFVGDKVTITCRASQSVGTYLNWYQQKAGKAPELLIYATSNLRSGVPSRFSGSGSGTDFTLTINTLQPEDFATYYCQQSYSIPRFTFGPGTKVDIK	2	binds	8.3	1.2	0.6	0.9			
M0038-F01 germline (antibody, human IgG1, kappa, V domains shown, Full chains; the ranges 20-464 and 20-234 come from claims 16, 18 and 20) VH: EVQLLESGGGLVQPGGSLRLSCAASGFTFSLYSMNWVRQAPGKGLEWVSSIYSSGGSTLYADSVKGRFTISRDNSKNTLYLQMNSLRAEDTAVYYCARGRAFDIWGQGTMVTVSS VL: DIQMTQSPSSLSASVGDRVTITCRASQSVGTYLNWYQQKPGKAPKLLIYATSNLRSGVPSRFSGSGSGTDFTLTISSLQPEDFATYYCQQSYSIPRFTFGPGTKVDIKR							5.13		
M0033-H07 IgG (antibody, V domains shown, IgG of the Fab) VH: EVQLLESGGGLVQPGGSLRLSCAASGFTFSVYGMVWVRQAPGKGLEWVSVISSSGGSTWYADSVKGRFTISRDNSKNTLYLQMNSLRAEDTALYYCARPFSRRYGVFDYWGQGTLVTVSS VL: DIQMTQSPSSLSASVGDRVTITCRASQGIRNFLAWYQQKPGKVPKLLVFGASALQSGVPSRFSGSGSGTDFTLTISGLQPEDVATYYCQKYNGVPLTFGGGTKVEIK	5.1			4	3.3	2.7		12.2	
M0037-D01 IgG (antibody, V domains shown, IgG of the Fab) VH: EVQLLESGGGLVQPGGSLRLSCAASGFTFSMYMMIWVRQAPGKGLEWVSSIYPSGGNTMYADSVKGRFTISRDNSKNTLYLQMNSLRAEDTAVYYCATGVLRYFDWDAGSGMDVWGQGTTVTVSS VL: DIQMTQSPSSLSASVGDRVTITCRASQGIRNDLGWYQQKPGKAPKRLIYVASSLQSGVPSRFSGSGSGTEFTLTISSLQPEDFATYYCLQHNSYPWTFGQGTKVEIK	1.7			2.9		1.7			2
M0043-G02 IgG (antibody, V domains shown, IgG of the Fab) VH: EVQLLESGGGLVQPGGSLRLSCAASGFTFSWYPMFWVRQAPGKGLEWVSGIYSSGGPTDYADSVKGRFTISRDNSKNTLYLQMNSLRAEDTAVYYCAKDTLGRYYDFWSGYSYGMDVWGQGTTVTVSS VL: DIQMTQSPGTLSLSPGERATLSCRASQSVSSSYLAWYQQKPGQAPRLLIYGASSRATGIPDRFSGSGSGTDFTLTISRLEPEDFAVYYCQSGVTFGGGTKVEIK	0.3			1.2	0.7				1.1
